The target of experiment [1] is T1, human MHC class II DR protein (DRA*0101/DRB1*0401), purified from PRIESS cells (human, UniProt P01903 26-254; P01911 30-266, limits assumed).
T1 construct: mature; also called HLA-DR protein; MHCII
T1 MHC II alpha: not shown
T1 MHC II beta: not shown
Description: SPR (BIAcore), Fab, chip density 500 RU MHCII. In general terms: Surface plasmon resonance follows binding to a sensor surface in real time, without labels.

In experiment [2] the target is T2, HLA-DR (DRA*0101/DRB1*0401) on PRIESS cells (human, UniProt P01903 26-254; P01911 30-266).
T2 MHC II alpha: not shown
T2 MHC II beta: not shown
Description: cell-based or functional assay.

Experiment [3] addresses T3, BSA (bovine, UniProt P02769 25-607).
T3 construct: negative control antigen; also called bovine serum albumine
Description: ELISA, coated antigen.

The target of experiment [4] is T1, human MHC class II DR protein …. The experiment is described as follows: BiaCore, IgG4. Here is the method:
The affinities for anti-HLA antibody fragments of the invention were measured as follows. All measurements were conducted in HBS buffer (20 mM HEPES, 150 mM NaCl, pH 7.4) at a flow rate of 20 µl/min at 25° C. on a BIAcore3000 instrument (Biacore AB, Sweden). MHC class II DR protein (prepared as example 1) was diluted in 100 mM sodium acetate pH 4.5 to a concentration of […], and coupled to a CM5 chip (Biacore AB) using standard EDC-NHS coupling chemistry with subsequent ethanolamine treatment as manufacturers directions. The coating density of MHCII was adjusted to between 500 and 4000 RU. Affinities were measured by injection of 5 different concentrations of the different antibodies and using the standard software of the Biacore instrument. Regeneration of the coupled surface was achieved using 10 mM glycine pH 2.3 and 7.5 mM NaOH.

The target of experiment [5] is T3, BSA. Description: ELISA, purified coated protein, OD at 370 nm minus background. (In an ELISA, binding on a coated surface is turned into a signal by an enzyme label.)
In experiment [6] the target is T4, chimeric 0401-IE class II molecule on cells of transgenic mice (human/murine chimera). Description: cell-based or functional assay.
The target of experiment [7] is T4, chimeric 0401-IE class II molecule on …. Description: cell-based or functional assay. The source holds these as a separate data set.
The next experiment concerns the target HLA-DR on L-363 cells (human). The experiment is described as follows: cell-based or functional assay.
The target of experiment [8] is HLA-DR on KARPAS-299 cells (human). The experiment is described as follows: cell-based or functional assay.
Another experiment addresses HLA-DR on SR-786 cells (human). The experiment is described as follows: cell-based or functional assay.
For a further experiment, the target named is HLA-DR on HDLM-2 cells (human). The experiment is described as follows: cell-based or functional assay.
The target of the next experiment is HLA-DR on EOL-1 cells (human). The experiment is described as follows: cell-based or functional assay.
The target of the next experiment is HLA-DR on BONNA-12 cells (human). The experiment is described as follows: cell-based or functional assay.
A further experiment concerns the target HLA-DR on BJAB cells (human). Description: cell-based or functional assay.
The target of experiment [9] is HLA-DR on GRANTA-519 cells (human). The experiment is described as follows: cell-based or functional assay.
A further experiment concerns the target HLA-DR on KM-H2 cells (human). Description: cell-based or functional assay.
A further experiment deals with HLA-DR on LP-1 cells (human). The experiment is described as follows: cell-based or functional assay.
The target of experiment [10] is HLA-DR on MHH-CALL-4 cells (human). Description: cell-based or functional assay.
Experiment [11] deals with HLA-DR on RPMI-8226 cells (human). Description: cell-based or functional assay.
Experiment [12] concerns the target T2, HLA-DR (DRA*0101/DRB1*0401) on PRIESS …. Description: cell-based or functional assay.
Another experiment has as its target HLA-DR on DOHH-2 cells (human). The experiment is described as follows: cell-based or functional assay.
A further experiment concerns the target HLA-DR on L-428 cells (human). The experiment is described as follows: cell-based or functional assay.
The next experiment addresses HLA-DR on RAJI cells (human). Description: cell-based or functional assay.
Experiment [13] deals with HLA-DR on KARPAS-422 cells (human). The experiment is described as follows: cell-based or functional assay.
For the next experiment, the target named is HLA-DR on L1236 cells (human). Description: cell-based or functional assay.
Another experiment concerns the target HLA-DR on NALM-1 cells (human). Description: cell-based or functional assay.
The target in experiment [14] is HLA-DR on MHH-PREB-1 cells (human). The experiment is described as follows: cell-based or functional assay.
The target in a further experiment is HLA-DR on ARH-77 cells (human). The experiment is described as follows: cell-based or functional assay.
The target in a further experiment is HLA-DR on MN-60 cells (human). Description: cell-based or functional assay.
In the next experiment the target is HLA-DR on HD-MY-Z cells (human). Description: cell-based or functional assay.
The target in the next experiment is HLA-DR on HC-1 cells (human). The experiment is described as follows: cell-based or functional assay.
Experiment [15] has as its target T1, human MHC class II DR protein …. The experiment is described as follows: SPR (BIAcore), IgG4 over MHCII on CM5 chip.

What is called Kd is a measure of binding affinity in units of concentration. A low value points to higher affinity. As usually defined, the koff is a measure of how fast the partners let go of each other. As usually defined, the kon is a measure of how fast the partners come together. High values mean fast association, low ones slow association.

T3 sequence (P02769 25-607 limits assumed): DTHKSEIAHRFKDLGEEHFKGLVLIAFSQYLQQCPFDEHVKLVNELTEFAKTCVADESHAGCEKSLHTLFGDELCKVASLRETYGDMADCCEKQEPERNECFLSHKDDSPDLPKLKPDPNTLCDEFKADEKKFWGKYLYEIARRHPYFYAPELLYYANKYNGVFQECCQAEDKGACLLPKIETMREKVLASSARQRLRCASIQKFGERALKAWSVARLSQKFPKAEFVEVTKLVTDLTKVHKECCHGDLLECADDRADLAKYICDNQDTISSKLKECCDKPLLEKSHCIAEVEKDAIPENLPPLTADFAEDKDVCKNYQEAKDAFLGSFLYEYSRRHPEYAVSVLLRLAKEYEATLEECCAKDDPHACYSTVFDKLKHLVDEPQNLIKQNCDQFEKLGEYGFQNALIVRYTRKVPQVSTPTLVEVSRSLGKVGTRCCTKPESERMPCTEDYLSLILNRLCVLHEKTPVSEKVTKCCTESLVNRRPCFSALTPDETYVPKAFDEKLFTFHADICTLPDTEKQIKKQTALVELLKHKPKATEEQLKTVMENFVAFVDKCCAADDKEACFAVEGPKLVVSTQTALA

B1: MS-GPC-1 Fab (Fab, V domains shown)
VH: QVQLKESGPALVKPTQTLTLTCTFSGFSLSTSGVGVGWIRQPPGKALEWLALIDWDDDKYYSTSLKTRLTISKDTSKNQVVLTMTNMDPVDTATYYCARQYGHRGGFDHWGQGTLVTVSS
VL: DIVLTQPPSVSGAPGQRVTISCSGSSSNIGSNYVSWYQQLPGTAPKLLIYDNNQRPSGVPDRFSGSKSGTSASLAITGLQSEDEADYYCQSYDFNESVFGGGTKLTVLG
notes: Fab from pMx9_Fab: VH-CH1 with FLAG tag and STREP tag II, VL-CL; VH residue 1 is Q in Fab; also called 17-Fab; 17
In experiment [1], B1 returned a Kd of 820 nM, a dissociation rate constant (koff) of 0.053 s⁻¹ and an association rate constant (kon) of 63900 M⁻¹ s⁻¹. Besides, the “EC50 of cell killing, cross-linked Fab, bivalent agent” value in experiment [2] worked out at 54 nM. In the experiment with BSA [3], the binding result is “no binding”.

B2: MS-GPC-8-27-41 IgG4 (antibody, V domains shown)
VH: QVQLKESGPALVKPTQTLTLTCTFSGFSLSTSGVGVGWIRQPPGKALEWLALIDWDDDKYYSTSLKTRLTISKDTSKNQVVLTMTNMDPVDTATYYCARSPRYRGAFDYWGQGTLVTVSS
VL: DIVLTQPPSVSGAPGQRVTISCSGSESNIGNNYVQWYQQLPGTAPKLLIYDNNQRPSGVPDRFSGSKSGTSASLAITGLQSEDEADYYCQSYDMNVHVFGGGTKLTVLG
notes: also called 1D09C3; IgG form of MS-GPC-8-27-41
Regarding B2, the dissociation constant (Kd) stood at 0.6 nM in [4] and 0.31 nM in [15]. Besides, the koff in [4] was determined as 0.00041 s⁻¹; in [15] it was 3.1e-05 s⁻¹. The binding result with BSA [5] is “no binding”. Further, the “IC50 of inhibition of IL-2 secretion from T-Hyb 1 cells” value in experiment [6] was 0.28 nM. In addition, the “Maximum inhibition(%) of IL-2 secretion” value in experiment [6] amounted to 100%. Further, the “IC50 value for inhibition of T cell proliferation” value in [7] was 20 nM. Moreover, the “% Killing by mAb, 50 nM, 4 h” value turned out to be 26% with HLA-DR on L-363 cells; 82% in experiment [8]; 53% with HLA-DR on SR-786 cells; 88% in the experiment with HLA-DR on HDLM-2 cells; 69% with HLA-DR on EOL-1 cells; 92% with HLA-DR on BONNA-12 cells. Besides, the “% Killing by mAb, 50 nM, 4 h” value in the experiment with HLA-DR on BJAB cells worked out at 71%; in experiment [9], 78%; in the experiment with HLA-DR on KM-H2 cells it was 86%; in the experiment with HLA-DR on LP-1 cells it was 73%; in [10], 63%; in experiment [11], 29%. Moreover, the “% Killing by mAb, 50 nM, 4 h” value in [12] was 88%; with HLA-DR on DOHH-2 cells, 59%; with HLA-DR on L-428 cells, 91%; with HLA-DR on RAJI cells, 84%; in experiment [13], 66%; with HLA-DR on L1236 cells it was 63%. In addition, the “% Killing by mAb, 50 nM, 4 h” value turned out to be 82% in the experiment with HLA-DR on NALM-1 cells; 4% in experiment [14]; 85% with HLA-DR on ARH-77 cells; 69% with HLA-DR on MN-60 cells; 69% with HLA-DR on HD-MY-Z cells; 93% with HLA-DR on HC-1 cells. Further, the “EC50 of cell killing, IgG4” value in [2] turned out to be 1.1 nM. Also, in experiment [15], the kon was 110000 M⁻¹ s⁻¹.

B3: MS-GPC-10 Fab (Fab, V domains shown)
VH: QVQLKESGPALVKPTQTLTLTCTFSGFSLSTSGVGVGWIRQPPGKALEWLALIDWDDDKYYSTSLKTRLTISKDTSKNQVVLTMTNMDPVDTATYYCARQLHYRGGFDLWGQGTLVTVSS
VL: DIVLTQPPSVSGAPGQRVTISCSGSSSNIGSNYVSWYQQLPGTAPKLLIYDNNQRPSGVPDRFSGSKSGTSASLAITGLQSEDEADYYCQSYDLTMGVFGGGTKLTVLG
notes: Fab from pMx9_Fab: VH-CH1 with FLAG tag and STREP tag II, VL-CL; VH residue 1 is Q in Fab; also called E6-Fab; E6
In experiment [1], B3 registered a dissociation constant Kd of 2860 nM, a koff of 0.063 s⁻¹ and a kon of 22000 M⁻¹ s⁻¹. Moreover, in [2], the “EC50 of cell killing, cross-linked Fab, bivalent agent” value came to 33 nM. The binding result with BSA [3] is recorded as “no binding”.

B4: MS-GPC-8-10-57 IgG4 (antibody, V domains shown)
VH: QVQLKESGPALVKPTQTLTLTCTFSGFSLSTSGVGVGWIRQPPGKALEWLALIDWDDDKYYSTSLKTRLTISKDTSKNQVVLTMTNMDPVDTATYYCARSPRYRGAFDYWGQGTLVTVSS
VL: DIVLTQPPSVSGAPGQRVTISCSGSESNIGNNYVQWYQQLPGTAPKLLIYDNNQRPSGVPDRFSGSKSGTSASLAITGLQSEDEADYYCQSYDLIRHVFGGGTKLTVLG
notes: also called 1C7277; IgG form of MS-GPC-8-10-57
Take B4: the dissociation constant (Kd) in [4] was determined as 0.3 nM; in [15], 0.6 nM. For the same molecule, the dissociation rate constant (koff) in [4] is 0.00031 s⁻¹; in experiment [15], 4e-05 s⁻¹. The binding result with BSA [5] is given as “no binding”. Moreover, in experiment [6], the “IC50 of inhibition of IL-2 secretion from T-Hyb 1 cells” value stood at 0.31 nM. In addition, in [6], the “Maximum inhibition(%) of IL-2 secretion” value is 100%. Also, the “IC50 value for inhibition of T cell proliferation” value in experiment [7] worked out at 11 nM. The “% Killing by mAb, 50 nM, 4 h” value with HLA-DR on L-363 cells came to 24%; in experiment [8] it was 79%; with HLA-DR on SR-786 cells, 44%; in the experiment with HLA-DR on HDLM-2 cells it was 84%; with HLA-DR on EOL-1 cells, 49%; with HLA-DR on BONNA-12 cells it was 91%. The “% Killing by mAb, 50 nM, 4 h” value was 67% with HLA-DR on BJAB cells; 78% in [9]; 88% in the experiment with HLA-DR on KM-H2 cells; 70% with HLA-DR on LP-1 cells; 46% in [10]; 26% in [11]. In addition, the “% Killing by mAb, 50 nM, 4 h” value was found to be 93% in [12]; 60% with HLA-DR on DOHH-2 cells; 91% with HLA-DR on L-428 cells; 86% in the experiment with HLA-DR on RAJI cells; 68% in experiment [13]; 66% with HLA-DR on L1236 cells. Also, the “% Killing by mAb, 50 nM, 4 h” value with HLA-DR on NALM-1 cells was determined as 78%; in experiment [14], 8%; in the experiment with HLA-DR on ARH-77 cells, 88%; in the experiment with HLA-DR on MN-60 cells, 66%; with HLA-DR on HD-MY-Z cells, 57%; with HLA-DR on HC-1 cells it was 86%. Further, the “EC50 of cell killing, IgG4” value in experiment [2] was 1.1 nM. This molecule returned a kon in [15] of 70000 M⁻¹ s⁻¹.

For the origin of these results see patent US7521047 (GPC BIOTECH, dated 2009).
